Experiments:
Experiment in all cases: cell-based or functional assay
[1] = biological target: HIV-1 Env of pseudovirus 1012_11_TC21_3257 (HIV-1)
[2] = biological target: HIV-1 Env of pseudovirus 1054_07_TC4_1499 (HIV-1)
[3] = biological target: HIV-1 Env of pseudovirus 1394C9G1(Rev-) (HIV-1)
[4] = biological target: HIV-1 Env of pseudovirus 231965.c01 (HIV-1)
[5] = biological target: HIV-1 Env of pseudovirus 62357_14_D3_4589 (HIV-1)
[6] = biological target: HIV-1 Env of pseudovirus AC10.0.29 (HIV-1)
[7] = biological target: HIV-1 Env of pseudovirus BJOX009000.02.4 (HIV-1)
[8] = biological target: HIV-1 Env of pseudovirus BJOX015000.11.5 (HIV-1)
[9] = biological target: HIV-1 Env of pseudovirus BJOX028000.10.3 (HIV-1)
[10] = biological target: HIV-1 Env of pseudovirus CAAN5342.A2 (HIV-1)
[11] = biological target: HIV-1 Env of pseudovirus CNE20 (HIV-1)
[12] = biological target: HIV-1 Env of pseudovirus CNE52 (HIV-1)
[13] = biological target: HIV-1 Env of pseudovirus CNE53 (HIV-1)
[14] = biological target: HIV-1 Env of pseudovirus CNE58 (HIV-1)
[15] = biological target: HIV-1 Env of pseudovirus Ce0393_C3 (HIV-1)
[16] = biological target: HIV-1 Env of pseudovirus Ce1176_A3 (HIV-1)
[17] = biological target: HIV-1 Env of pseudovirus Ce2010_F5 (HIV-1)
[18] = biological target: HIV-1 Env of pseudovirus Ce2060_G9 (HIV-1)
[19] = biological target: HIV-1 Env of pseudovirus Du172.17 (HIV-1)
[20] = biological target: HIV-1 Env of pseudovirus Du422.1 (HIV-1)
[21] = biological target: HIV-1 Env of pseudovirus HIV-0013095-2.11 (HIV-1)
[22] = biological target: HIV-1 Env of pseudovirus HIV-16055-2.3 (HIV-1)
[23] = biological target: HIV-1 Env of pseudovirus P1981_C5_3 (HIV-1)
[24] = biological target: HIV-1 Env of pseudovirus Q769.d22 (HIV-1)
[25] = biological target: HIV-1 Env of pseudovirus Q842.d12 (HIV-1)
[26] = biological target: HIV-1 Env of pseudovirus T257-31 (HIV-1)
[27] = biological target: HIV-1 Env of pseudovirus TRO.11 (HIV-1)
[28] = biological target: HIV-1 Env of pseudovirus WEAU_d15_410_787 (HIV-1)
[29] = biological target: HIV-1 Env of pseudovirus X1254_c3 (HIV-1)
[30] = biological target: HIV-1 Env of pseudovirus X1632_S2_B10 (HIV-1)
[31] = biological target: HIV-1 Env of pseudovirus ZM109F.PB4 (HIV-1)
[32] = biological target: HIV-1 Env of pseudovirus ZM135M.PL10a (HIV-1)
[33] = biological target: HIV-1 Env of pseudovirus ZM197M.PB7 (HIV-1)
[34] = biological target: HIV-1 Env of pseudovirus ZM214M.PL15 (HIV-1)
[35] = biological target: HIV-1 Env of pseudovirus ZM233M.PB6 (HIV-1)
[36] = biological target: HIV-1 Env of pseudovirus ZM247v1(Rev-) (HIV-1)
[37] = biological target: HIV-1 Env of pseudovirus ZM53M.PB12 (HIV-1)

PGT145 (antibody) gave a neutralization IC50 [1] of 0.009 µg/mL, a neutralization IC80 [1] of 0.025 µg/mL and a neutralization IC50 [2] of over 50 µg/mL. For the same substance, the neutralization IC80 [2] was over 50 µg/mL, the neutralization IC50 [3] was 1 ng/mL and the neutralization IC80 [3] was 5 ng/mL. For the same substance, the IC50 (Titer in TZM.bl cells) [4] was 0.403 µg/mL, the IC80 (Titer in TZM.bl cells) [4] was 15 µg/mL and the neutralization IC50 [5] was over 50 µg/mL. The neutralization IC80 [5] was over 50 µg/mL, the neutralization IC50 [6] was 0.01 µg/mL and the neutralization IC80 [6] was 0.025 µg/mL. The IC50 (Titer in TZM.bl cells) [7] was 0.117 µg/mL, the IC80 (Titer in TZM.bl cells) [7] was 0.745 µg/mL and the IC50 (Titer in TZM.bl cells) [8] was over 50 µg/mL. It also gave an IC80 (Titer in TZM.bl cells) [8] of over 50 µg/mL, an IC50 (Titer in TZM.bl cells) [9] of over 50 µg/mL and an IC80 (Titer in TZM.bl cells) [9] of over 50 µg/mL. It also gave a neutralization IC50 [10] of 6.67 µg/mL, a neutralization IC80 [10] of 25.5 µg/mL and a neutralization IC50 [11] of 0.318 µg/mL. It also gave a neutralization IC80 [11] of 6.97 µg/mL, a neutralization IC50 [12] of 0.02 µg/mL and a neutralization IC80 [12] of 0.091 µg/mL. For the same substance, the neutralization IC50 [13] was 0.006 µg/mL, the neutralization IC80 [13] was 0.084 µg/mL and the neutralization IC50 [14] was 0.183 µg/mL. It also gave a neutralization IC80 [14] of 7.41 µg/mL, a neutralization IC50 [15] of 0.112 µg/mL and a neutralization IC80 [15] of 1.23 µg/mL. It also gave a neutralization IC50 [16] of over 50 µg/mL, a neutralization IC80 [16] of over 50 µg/mL and a neutralization IC50 [17] of over 50 µg/mL. It also gave a neutralization IC80 [17] of over 50 µg/mL, a neutralization IC50 [18] of 16 ng/mL and a neutralization IC80 [18] of 0.205 µg/mL. For the same substance, the neutralization IC50 [19] was over 50 µg/mL, the neutralization IC80 [19] was over 50 µg/mL and the neutralization IC50 [20] was 22.6 µg/mL. The neutralization IC80 [20] was over 50 µg/mL, the neutralization IC50 [21] was 9.27 µg/mL and the neutralization IC80 [21] was over 50 µg/mL. For the same substance, the neutralization IC50 [22] was 3 ng/mL, the neutralization IC80 [22] was 0.051 µg/mL and the IC50 (Titer in TZM.bl cells) [23] was 5.41 µg/mL. For the same substance, the IC80 (Titer in TZM.bl cells) [23] was over 50 µg/mL, the neutralization IC50 [24] was 0.26 µg/mL and the neutralization IC80 [24] was 25.5 µg/mL. It also gave a neutralization IC50 [25] of 0.032 µg/mL, a neutralization IC80 [25] of 0.552 µg/mL and a neutralization IC50 [26] of 5.18 µg/mL. For the same substance, the neutralization IC80 [26] was over 50 µg/mL, the neutralization IC50 [27] was 0.04 µg/mL and the neutralization IC80 [27] was 0.118 µg/mL. It also gave a neutralization IC50 [28] of 1.95 µg/mL, a neutralization IC80 [28] of 31.5 µg/mL and an IC50 (Titer in TZM.bl cells) [29] of 5.6 µg/mL. The IC80 (Titer in TZM.bl cells) [29] was over 50 µg/mL, the IC50 (Titer in TZM.bl cells) [30] was 0.012 µg/mL and the IC80 (Titer in TZM.bl cells) [30] was 2.03 µg/mL. It also gave a neutralization IC50 [31] of 0.042 µg/mL, a neutralization IC80 [31] of 0.234 µg/mL and a neutralization IC50 [32] of over 50 µg/mL. The neutralization IC80 [32] was over 50 µg/mL, the neutralization IC50 [33] was 0.628 µg/mL and the neutralization IC80 [33] was 5.24 µg/mL. The neutralization IC50 [34] was over 50 µg/mL, the neutralization IC80 [34] was over 50 µg/mL and the neutralization IC50 [35] was 0.025 µg/mL. For the same substance, the neutralization IC80 [35] was 0.68 µg/mL, the neutralization IC50 [36] was 7.19 µg/mL and the neutralization IC80 [36] was over 50 µg/mL. It also gave a neutralization IC50 [37] of 0.367 µg/mL and a neutralization IC80 [37] of 11.8 µg/mL.

PGDM1400 (antibody) was tested, and the neutralization IC50 [1] was 0.049 µg/mL, the neutralization IC80 [1] was 0.23 µg/mL and the neutralization IC50 [2] was over 50 µg/mL. For the same substance, the neutralization IC80 [2] was over 50 µg/mL, the neutralization IC50 [3] was under 1 ng/mL and the neutralization IC80 [3] was 4 ng/mL. For the same substance, the IC50 (Titer in TZM.bl cells) [4] was 0.025 µg/mL, the IC80 (Titer in TZM.bl cells) [4] was 1.28 µg/mL and the neutralization IC50 [5] was over 50 µg/mL. It also gave a neutralization IC80 [5] of over 50 µg/mL, a neutralization IC50 [6] of 0.105 µg/mL and a neutralization IC80 [6] of 0.869 µg/mL. For the same substance, the IC50 (Titer in TZM.bl cells) [7] was 0.443 µg/mL, the IC80 (Titer in TZM.bl cells) [7] was 1.29 µg/mL and the IC50 (Titer in TZM.bl cells) [8] was 0.52 µg/mL. It also gave an IC80 (Titer in TZM.bl cells) [8] of 10.6 µg/mL, an IC50 (Titer in TZM.bl cells) [9] of 0.072 µg/mL and an IC80 (Titer in TZM.bl cells) [9] of 0.963 µg/mL. It also gave a neutralization IC50 [10] of over 50 µg/mL, a neutralization IC80 [10] of over 50 µg/mL and a neutralization IC50 [11] of 0.004 µg/mL. The neutralization IC80 [11] was 0.014 µg/mL, the neutralization IC50 [12] was 1.15 µg/mL and the neutralization IC80 [12] was 9.97 µg/mL. It also gave a neutralization IC50 [13] of 0.077 µg/mL, a neutralization IC80 [13] of 0.246 µg/mL and a neutralization IC50 [14] of 0.004 µg/mL. It also gave a neutralization IC80 [14] of 0.014 µg/mL, a neutralization IC50 [15] of 0.015 µg/mL and a neutralization IC80 [15] of 0.044 µg/mL. The neutralization IC50 [16] was 0.587 µg/mL, the neutralization IC80 [16] was 11.6 µg/mL and the neutralization IC50 [17] was over 50 µg/mL. For the same substance, the neutralization IC80 [17] was over 50 µg/mL, the neutralization IC50 [18] was 1 ng/mL and the neutralization IC80 [18] was 0.007 µg/mL. It also gave a neutralization IC50 [19] of 5.18 µg/mL, a neutralization IC80 [19] of 22 µg/mL and a neutralization IC50 [20] of 0.694 µg/mL. For the same substance, the neutralization IC80 [20] was over 50 µg/mL, the neutralization IC50 [21] was 0.003 µg/mL and the neutralization IC80 [21] was 0.012 µg/mL. For the same substance, the neutralization IC50 [22] was under 1 ng/mL, the neutralization IC80 [22] was 0.003 µg/mL and the IC50 (Titer in TZM.bl cells) [23] was 0.104 µg/mL. For the same substance, the IC80 (Titer in TZM.bl cells) [23] was 4.6 µg/mL, the neutralization IC50 [24] was 0.002 µg/mL and the neutralization IC80 [24] was 0.018 µg/mL. It also gave a neutralization IC50 [25] of under 0.001 µg/mL, a neutralization IC80 [25] of 0.002 µg/mL and a neutralization IC50 [26] of 0.002 µg/mL. For the same substance, the neutralization IC80 [26] was 0.031 µg/mL, the neutralization IC50 [27] was 0.283 µg/mL and the neutralization IC80 [27] was 1.38 µg/mL. The neutralization IC50 [28] was 0.103 µg/mL, the neutralization IC80 [28] was 1.37 µg/mL and the IC50 (Titer in TZM.bl cells) [29] was over 50 µg/mL. For the same substance, the IC80 (Titer in TZM.bl cells) [29] was over 50 µg/mL, the IC50 (Titer in TZM.bl cells) [30] was 0.055 µg/mL and the IC80 (Titer in TZM.bl cells) [30] was 1.45 µg/mL. The neutralization IC50 [31] was 0.057 µg/mL, the neutralization IC80 [31] was 0.382 µg/mL and the neutralization IC50 [32] was over 50 µg/mL. The neutralization IC80 [32] was over 50 µg/mL, the neutralization IC50 [33] was 0.063 µg/mL and the neutralization IC80 [33] was 0.285 µg/mL. For the same substance, the neutralization IC50 [34] was over 50 µg/mL, the neutralization IC80 [34] was over 50 µg/mL and the neutralization IC50 [35] was under 0.001 µg/mL. It also gave a neutralization IC80 [35] of 0.001 µg/mL, a neutralization IC50 [36] of 0.019 µg/mL and a neutralization IC80 [36] of 0.051 µg/mL. The neutralization IC50 [37] was 0.002 µg/mL and the neutralization IC80 [37] was 0.011 µg/mL.
